The text below walks through data of paper PMC2267071.

Where “and” joins values, the source holds several entries; their conditions need not be identical. Equal entries are not always repeated.

For data set [1], the target named is His4 (position 4, --TASHHK---). Briefly: NMR. The settings on record: 25 C; free peptide (no metal), 5 mM.
In data set [2] the target is His5 (position 5, -TASHHK----). Briefly: NMR. The settings on record: 25 C; free peptide (no metal), 5 mM.
Data set [3] addresses His4 (position 4, --TASHHK---). Briefly: potentiometry. Particulars: 25 C; 0.1 M KNO3; free peptide (no metal).
The target of data set [4] is His5 (position 5, -TASHHK----). Briefly: potentiometry. Particulars: 25 C; 0.1 M KNO3; free peptide (no metal).
Data set [5] addresses Lys6 (position 6, TASHHK-----). Briefly: potentiometry. Particulars: 25 C; 0.1 M KNO3; free peptide (no metal).
Data set [6] has as its target His4 (position 4, --TESHHK---). Briefly: NMR. The settings on record: 25 C; free peptide (no metal), 5 mM.
The target of data set [7] is His5 (position 5, -TESHHK----). The experiment in a line: NMR. Particulars: 25 C; free peptide (no metal), 5 mM.
The target in data set [8] is Glu2 (position 2, ----TESHHK-). The experiment in a line: potentiometry. Particulars: 25 C; 0.1 M KNO3; free peptide (no metal).
Data set [9] has as its target His4 (position 4, --TESHHK---). Briefly: potentiometry. Particulars: 25 C; 0.1 M KNO3; free peptide (no metal).
Data set [10] has as its target His5 (position 5, -TESHHK----). The experiment in a line: potentiometry. Particulars: 25 C; 0.1 M KNO3; free peptide (no metal).
For data set [11], the target named is Lys6 (position 6, TESHHK-----). The experiment in a line: potentiometry. The settings on record: 25 C, 0.1 M KNO3.
The target of data set [12] is His4 (position 4, --TEAHHK---). Briefly: NMR. Particulars: 25 C; free peptide (no metal), 5 mM.
Data set [13] has as its target His5 (position 5, -TEAHHK----). Briefly: NMR. The settings on record: 25 C; free peptide (no metal), 5 mM.
The target in data set [14] is Glu2 (position 2, ----TEAHHK-). Briefly: potentiometry. Particulars: 25 C; 0.1 M KNO3; free peptide (no metal).
The target in data set [15] is His4 (position 4, --TEAHHK---). Briefly: potentiometry. Particulars: 25 C; 0.1 M KNO3; free peptide (no metal).
Data set [16] has as its target His5 (position 5, -TEAHHK----). The experiment in a line: potentiometry. Particulars: 25 C; 0.1 M KNO3; free peptide (no metal).
The target in data set [17] is Lys6 (position 6, TEAHHK-----). Briefly: potentiometry. The settings on record: 25 C, 0.1 M KNO3.
[18] abbreviates: Zn(II)-bound peptide (ZnH-1L to ZnH-2L step), peptide:Zn ratios 1:1 and 2:1.

B1: Ac-TASHHK-NH2, Glu-to-Ala analogue of the histone H2A -TESHHK- peptide (synthetic peptide; sequence derived from mammalian histone H2A (species not stated); … (peptide)
chain: TASHHK
With B1, the pKa was 6.29 (2) and 6.06 (3) in data set [1]; 6.30 (2) and 6.61 (4) in data set [2]; 5.74 in data set [3]; 6.62 in data set [4]; 10.48 in data set [5].

B2: Ac-TESHHK-NH2, hexapeptide model of the histone H2A C-terminal tail (-ESHH- motif) (synthetic peptide; sequence from mammalian histone H2A (species not stated)) (peptide)
chain: TESHHK
Turning to B2, the pKa in data set [6] was 6.35 (I) and 6.12 (4); in [7], 6.41 (2) and 6.88 (5); in [8] it was 3.85; in data set [9], 5.90; in data set [10] it was 6.78; in data set [11] (setting [18]), 10.30. Further, the pKa in data set [11] (free peptide (no metal)) is given as 10.28.

B3: Ac-TEAHHK-NH2, Ser-to-Ala analogue of the histone H2A -TESHHK- peptide (synthetic peptide; sequence derived from mammalian histone H2A (species not stated); … (peptide)
chain: TEAHHK
For B3, the pKa in data set [12] was 6.42 (2) and 6.15 (3); in [13], 6.48 (2) and 6.72 (2); in data set [14], 4.10; in data set [15], 6.00; in data set [16], 6.68; in data set [17] (setting [18]), 10.34. The pKa in data set [17] (free peptide (no metal)) turned out to be 10.25.
